Laboratory results published in PMC2725191.

Molecular target: Biotinylated tubulin (bovine brain tubulin labelled with NHS-LC-biotin), held on a streptavidin layer (bovine) (UniProt Q6B856)
Assay: dual polarization interferometry

rate of thickness increase after the inflection point (microtubule growth): 0.436 nm/min
Substance: Tubulin (alpha/beta heterodimer), purified from bovine brain (from UniProt Q6B856 1-445) (complex)
